How the values were obtained:
[1] = biological target: 0317ΔCD (MSMEG_0317 lacking the C-terminal cytoplasmic domain) (M. smegmatis); assay: SEC-MALS
[2] = biological target: 0317ΔNH (MSMEG_0317 lacking the N-terminal TM helix) (M. smegmatis); assay: SEC-MALS

Row | Substance | stoichiometry N [1] | stoichiometry N [2]
1 | 0317ΔCD (MSMEG_0317 lacking the C-terminal cytoplasmic domain) (domain or fragment) | 2 | 
2 | 0317ΔNH (MSMEG_0317 lacking the N-terminal TM helix) (domain or fragment) |  | 2
